The supplement of paper PMC6757056
± gives the standard deviation of the averaged measurements.

B1: library; a variant is named by its letters at N, in order (parent)
chain: GCUGUCACCGAGAAACUGUGAAGUAUAUCUUAAACCUGGGCACUUAAAAGAUAUAUGGAGUUAGUAGUGCAACCUGCUCGGUCUGAUGAGUCCNNNNNNGGACGAAACAGC

Assays:
[1] = variants of: B1; experiment: normalized RNA/DNA level without ligand (relative to sTRSVctl = 100) (log10 (% of sTRSVctl)); HEK293T; ligand: cyclic di-GMP (c-di-GMP-II aptamer); higher = less ribozyme self-cleavage, higher mRNA level; details: reporter: mCherry (pCS4076), ligand present: no
Outline: (§1)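 Ribozyme switch library plasmids linked to reporters were introduced into HEK293T cells at 4 µg per 6-well well, with ligand, if any, added 1 h before. Total RNA was extracted with EDTA 72 h later, reverse-transcribed, amplified, barcoded and sequenced. RNA level was computed from RNA over DNA reads relative to a spiked-in non-cleaving sequence or the top sequences, then scaled and log-transformed. The top set was 25 sequences, values were ×100 and log10, and the cutoff was ≥100 DNA reads.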

[2] = variants of: B1; experiment: normalized RNA/DNA level with ligand (relative to sTRSVctl = 100) (log10 (% of sTRSVctl)); HEK293T; ligand: cyclic di-GMP (c-di-GMP-II aptamer); ligand concentration (+) RNA-Seq: 1 mM; higher = less ribozyme self-cleavage, higher mRNA level; details: reporter: mCherry (pCS4076), ligand present: yes
Outline: as §1

Variant | normalized RNA/DNA level without ligand (log10) [1] | normalized RNA/DNA level with ligand (log10) [2]
GAGUGG | 1.84 ± 0.043 | 1.9 ± 0.12
GAGUGA | 1.71 ± 0.033 | 1.79 ± 0.14
GAGUGC | 1.785 ± 0.006 | 1.86 ± 0.13
GAUCCG | 1.88 ± 0.068 | 1.95 ± 0.15
GAUCCC | 1.79 ± 0.027 | 1.89 ± 0.082
GAUCCU | 1.7 ± 0.025 | 1.84 ± 0.13
GAUCCA | 1.71 ± 0.032 | 1.85 ± 0.1
CAUCGU | 1.74 ± 0.095 | 1.83 ± 0.098
CAUCGC | 1.783 ± 0.015 | 1.87 ± 0.043
CAUCGG | 1.78 ± 0.048 | 1.84 ± 0.12
GAGUCG | 1.83 ± 0.031 | 1.88 ± 0.092
GAGUCA | 1.82 ± 0.021 | 1.9 ± 0.085
GAGUCC | 1.8 ± 0.043 | 1.88 ± 0.064
GAGUCU | 1.8 ± 0.07 | 1.85 ± 0.076
GAGGGU | 1.71 ± 0.024 | 1.75 ± 0.14
CAGUAC | 1.6 ± 0.018 | 1.74 ± 0.14
CAGUAG | 1.724 ± 0.013 | 1.83 ± 0.096
CAUAAC | 1.62 ± 0.028 | 1.75 ± 0.1
CAUAAG | 1.706 ± 0.013 | 1.82 ± 0.1
UAGGUC | 1.64 ± 0.032 | 1.81 ± 0.12
UAGGUA | 1.55 ± 0.018 | 1.72 ± 0.05
UAGGUG | 1.58 ± 0.068 | 1.77 ± 0.093
UAGGUU | 1.67 ± 0.051 | 1.82 ± 0.11
UAUACC | 1.76 ± 0.053 | 1.86 ± 0.1

Variant | normalized RNA/DNA level without ligand (log10) [1] | normalized RNA/DNA level with ligand (log10) [2]
UAUACA | 1.711 ± 0.0027 | 1.85 ± 0.12
UAUACG | 1.75 ± 0.029 | 1.85 ± 0.11
CAUAUG | 1.718 ± 0.017 | 1.81 ± 0.053
CAUAUC | 1.63 ± 0.069 | 1.79 ± 0.047
CAUAUU | 1.45 ± 0.13 | 1.64 ± 0.067
AAUCGU | 1.65 ± 0.038 | 1.81 ± 0.11
AAUCGA | 1.49 ± 0.07 | 1.69 ± 0.094
AAUCGG | 1.6 ± 0.048 | 1.76 ± 0.12
AAUCGC | 1.74 ± 0.018 | 1.89 ± 0.12
GAUGUG | 1.71 ± 0.032 | 1.8 ± 0.1
GAUGUU | 1.62 ± 0.037 | 1.78 ± 0.086
GAUGUC | 1.7082 ± 0.001 | 1.87 ± 0.12
GAUCGG | 1.747 ± 0.013 | 1.82 ± 0.034
GAUCGC | 1.74 ± 0.019 | 1.86 ± 0.051
GAUCGU | 1.65 ± 0.046 | 1.81 ± 0.087
AAUGGU | 1.62 ± 0.048 | 1.76 ± 0.1
CAGUCA | 1.41 ± 0.1 | 1.52 ± 0.13
CAGUCG | 1.76 ± 0.067 | 1.9 ± 0.12
CAGUCU | 1.52 ± 0.048 | 1.68 ± 0.12
UAGUAA | 1.652 ± 0.0068 | 1.8 ± 0.12
UAGUAG | 1.7 ± 0.036 | 1.84 ± 0.1
UAGUAC | 1.68 ± 0.037 | 1.8 ± 0.12
UAUAUU | 1.68 ± 0.043 | 1.86 ± 0.12
UAUAUG | 1.71 ± 0.044 | 1.84 ± 0.12

Variant | normalized RNA/DNA level without ligand (log10) [1] | normalized RNA/DNA level with ligand (log10) [2]
UAUAUA | 1.68 ± 0.076 | 1.86 ± 0.11
UAUUAU | 1.682 ± 0.011 | 1.82 ± 0.14
UAUUAG | 1.73 ± 0.042 | 1.87 ± 0.068
UAUAAG | 1.66 ± 0.03 | 1.82 ± 0.14
UAUAAC | 1.697 ± 0.015 | 1.85 ± 0.12
UAUAAU | 1.66 ± 0.063 | 1.8 ± 0.099
GAUGCC | 1.772 ± 0.014 | 1.84 ± 0.1
GAUGCU | 1.73 ± 0.033 | 1.85 ± 0.12
GAUGCG | 1.82 ± 0.063 | 1.89 ± 0.13
UAUCCA | 1.77 ± 0.062 | 1.86 ± 0.097
UAUCCG | 1.8 ± 0.022 | 1.87 ± 0.095
UAUCCC | 1.83 ± 0.0035 | 1.9 ± 0.055
UAUCCU | 1.755 ± 0.013 | 1.87 ± 0.13
GAUUCA | 1.72 ± 0.021 | 1.85 ± 0.064
GAUUCC | 1.8 ± 0.097 | 1.87 ± 0.14
GAUUCG | 1.7482 ± 0.0012 | 1.88 ± 0.06
CAUAGC | 1.73 ± 0.062 | 1.84 ± 0.13
CAUAGA | 1.54 ± 0.073 | 1.69 ± 0.031
CAUAGG | 1.688 ± 0.011 | 1.85 ± 0.093
UAGGGG | 1.563 ± 0.0094 | 1.72 ± 0.079
UAGUCU | 1.707 ± 0.015 | 1.84 ± 0.053
UAGUCG | 1.8 ± 0.021 | 1.91 ± 0.14
UAGUCA | 1.768 ± 0.017 | 1.91 ± 0.076
AAUAAC | 1.634 ± 0.013 | 1.8 ± 0.092

Variant | normalized RNA/DNA level without ligand (log10) [1] | normalized RNA/DNA level with ligand (log10) [2]
AAUAAU | 1.63 ± 0.051 | 1.8 ± 0.077
AAUAAG | 1.52 ± 0.064 | 1.7 ± 0.096
CAUGAG | 1.714 ± 0.012 | 1.84 ± 0.074
CAUGAU | 1.57 ± 0.027 | 1.73 ± 0.13
CAUGGU | 1.648 ± 0.0024 | 1.77 ± 0.16
CAUGGC | 1.715 ± 0.005 | 1.84 ± 0.09
CAUGGG | 1.682 ± 0.0032 | 1.84 ± 0.094
AAUCCA | 1.65 ± 0.025 | 1.79 ± 0.088
AAUCCC | 1.77 ± 0.032 | 1.86 ± 0.087
AAUCCU | 1.73 ± 0.073 | 1.86 ± 0.11
AAUCCG | 1.83 ± 0.037 | 1.93 ± 0.028
UAUCUU | 1.72 ± 0.054 | 1.88 ± 0.088
UAUCUA | 1.683 ± 0.0069 | 1.81 ± 0.097
UAUCUG | 1.725 ± 0.011 | 1.87 ± 0.089
UAUCUC | 1.81 ± 0.039 | 1.9 ± 0.1
UAUUCA | 1.8 ± 0.032 | 1.88 ± 0.053
UAUUCG | 1.756 ± 0.0047 | 1.87 ± 0.13
UAUUCC | 1.77 ± 0.029 | 1.88 ± 0.12
GAUAUC | 1.6972 ± 0.0005 | 1.86 ± 0.12
GAUAUG | 1.52 ± 0.028 | 1.71 ± 0.096
GAUAUA | 1.53 ± 0.032 | 1.7 ± 0.1
GAUAUU | 1.61 ± 0.019 | 1.8 ± 0.13
AAUGCA | 1.666 ± 0.0048 | 1.78 ± 0.14
AAUGCG | 1.704 ± 0.0078 | 1.82 ± 0.15

Variant | normalized RNA/DNA level without ligand (log10) [1] | normalized RNA/DNA level with ligand (log10) [2]
AAUGCC | 1.73 ± 0.034 | 1.83 ± 0.11
AAUGCU | 1.73 ± 0.036 | 1.85 ± 0.12
GAUCUU | 1.673 ± 0.0037 | 1.8 ± 0.091
GAUCUG | 1.708 ± 0.016 | 1.84 ± 0.07
GAUCUC | 1.75 ± 0.02 | 1.89 ± 0.15
GAUCUA | 1.67 ± 0.032 | 1.81 ± 0.097
AAUUAC | 1.72 ± 0.068 | 1.83 ± 0.099
AAUUAG | 1.6 ± 0.029 | 1.76 ± 0.11
AAUUAU | 1.67 ± 0.03 | 1.82 ± 0.1
CAUACG | 1.81 ± 0.051 | 1.91 ± 0.052
CAUACA | 1.38 ± 0.11 | 1.58 ± 0.1
CAUACU | 1.51 ± 0.044 | 1.7 ± 0.12
CAUCCU | 1.6 ± 0.03 | 1.77 ± 0.1
CAUCCG | 1.82 ± 0.035 | 1.88 ± 0.09
AAGUGC | 1.666 ± 0.0039 | 1.82 ± 0.14
AAGUGU | 1.6 ± 0.034 | 1.76 ± 0.14
AAGUGG | 1.68 ± 0.033 | 1.78 ± 0.12
AAGUGA | 1.38 ± 0.19 | 1.5546 ± 0.00035
AAUGAC | 1.63 ± 0.018 | 1.79 ± 0.081
CAGUUG | 1.76 ± 0.019 | 1.87 ± 0.11
